According to PMC10617019 (Nature cell biology, 2023):
Where no end group is shown, it is not given here. [ ]: non-standard residue; d: D form. Hyp = O=C(O)[C@@H]1C[C@@H](O)CN1

Target: pVHL in complex with elongin C and elongin B (VCB) (human, UniProt P40337 55-213; Q15370 1-118)
Experiment: fluorescence polarisation

Kd: 5.9 µM
Binder: TLYYMA[Hyp]EHLNDVNA (also: FITC label, position not given here) [Fluorescein isothiocyanate-labelled RIPK1 peptide T189LYYMA(Hyp)EHLNDVNA203]
